Among the data in paper PMC5462531 are Kd values, retold here.

Assay [1] deals with SBC, trimeric complex of SOCS2, Elongin B and Elongin C (wild type) (UniProt O14508). Briefly: ITC; Cul5NTD titrated into VBC or SBC proteins (Figure 7D: 200 μM into 20 μM, 303 K); 100 mM Bis tris propane pH 8.0, 50 mM NaCl, 2 mM TCEP; one-set-of-sites model. A general note: In ITC the heat of successive injections is recorded.
Assay [2] deals with V^QRYBC, VBC with the pVHL triple mutation K159Q, S183R, D187Y (human) (UniProt P40337). Described as above.
Assay [3] deals with S^KSDBC, SBC with the SOCS2 triple mutation Q164K, R186S, Y190D (UniProt O14508). The assay is described as above.
Assay [4] has as its target Rbx1-Cul2, dimeric complex of full-length Rbx1 and full-length Cullin-2 (wild type) (human) (UniProt Q13617). Kind of assay: ITC; VBC or SBC proteins (200 μM) titrated into Rbx1-Cul2 (20 μM), 303 K; 100 mM Bis tris propane pH 8.0, 50 mM NaCl, 2 mM TCEP; one-set-of-sites model.

Sequence of Cul5NTD, N-terminal domain of Cullin-5 (residues 1-386) (Q93034 1-386): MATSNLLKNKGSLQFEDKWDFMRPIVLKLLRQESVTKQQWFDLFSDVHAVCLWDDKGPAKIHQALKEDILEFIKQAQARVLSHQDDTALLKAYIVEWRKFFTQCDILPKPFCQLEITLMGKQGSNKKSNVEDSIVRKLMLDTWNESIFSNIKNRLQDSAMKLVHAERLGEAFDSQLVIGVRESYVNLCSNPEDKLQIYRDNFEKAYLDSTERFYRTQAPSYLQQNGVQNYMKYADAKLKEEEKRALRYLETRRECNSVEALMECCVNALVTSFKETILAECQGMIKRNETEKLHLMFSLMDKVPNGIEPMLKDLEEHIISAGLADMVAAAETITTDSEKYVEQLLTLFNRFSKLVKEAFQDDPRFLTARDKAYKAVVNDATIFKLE
Sequence of Rbx1-Cul2, dimeric complex of full-length Rbx1 and full-length Cullin-2 (wild type) (human) (Q13617 whole entry, chain 1 of 2): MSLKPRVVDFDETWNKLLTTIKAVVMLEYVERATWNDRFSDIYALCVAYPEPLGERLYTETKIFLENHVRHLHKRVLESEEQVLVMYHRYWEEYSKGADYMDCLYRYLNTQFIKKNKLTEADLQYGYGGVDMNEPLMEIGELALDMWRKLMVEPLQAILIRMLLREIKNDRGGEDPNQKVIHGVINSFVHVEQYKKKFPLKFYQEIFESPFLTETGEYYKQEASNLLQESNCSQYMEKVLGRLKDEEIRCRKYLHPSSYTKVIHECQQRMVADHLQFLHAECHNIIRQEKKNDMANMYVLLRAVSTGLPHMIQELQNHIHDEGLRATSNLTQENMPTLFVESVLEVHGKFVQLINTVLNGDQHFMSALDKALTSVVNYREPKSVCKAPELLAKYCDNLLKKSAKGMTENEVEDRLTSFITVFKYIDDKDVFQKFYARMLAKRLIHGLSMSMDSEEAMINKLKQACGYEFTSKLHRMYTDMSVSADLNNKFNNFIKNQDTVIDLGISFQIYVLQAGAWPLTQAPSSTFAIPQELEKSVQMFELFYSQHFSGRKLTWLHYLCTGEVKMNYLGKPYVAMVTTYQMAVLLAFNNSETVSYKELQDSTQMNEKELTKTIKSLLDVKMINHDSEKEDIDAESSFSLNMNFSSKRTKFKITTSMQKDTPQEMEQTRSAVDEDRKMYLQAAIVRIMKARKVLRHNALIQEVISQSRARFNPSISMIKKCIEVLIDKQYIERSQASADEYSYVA
Sequence of Rbx1-Cul2, dimeric complex of full-length Rbx1 and full-length Cullin-2 (wild type) (human) (P62877 whole entry, chain 2 of 2, further chain): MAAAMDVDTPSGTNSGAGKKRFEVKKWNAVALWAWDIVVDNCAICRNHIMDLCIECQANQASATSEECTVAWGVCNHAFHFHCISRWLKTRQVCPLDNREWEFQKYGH

By Kd is commonly meant the free concentration of one partner at which half of the binding sites on the other are occupied at equilibrium, for simple one-to-one binding. Lower therefore signals tighter binding. Consider “Cul5NTD, N-terminal domain of Cullin-5 (residues 1-386) (from UniProt Q93034 1-386) (domain or fragment)”, for which the Kd is 0.01 µM in assay [1], 2.9 µM in assay [2] and 0.25 µM in assay [3].

In assay [4], “S^KSDBC, SBC with the SOCS2 triple mutation Q164K, R186S, Y190D (from UniProt O14508 32-198; Q15370 1-104; Q15369 17-112) (complex; other documents disagree on this pair)” returned a Kd of 2.5 µM.
